This note sets out measurements from article PMC4960239, “Flavoprotein-Mediated Tellurite Reduction: Structural Basis and Applications to the Synthesis of Tellurium-Containing Nanostructures” (Frontiers in Microbiology, 2016).

For one data set, the target named is T1, GorA (Escherichia coli, UniProt P06715).
T1 construct: gene gor; His-tagged full-length, ASKA clone, HisTrap purified, ~49 kDa
Kind of data set: Te0 formation, non-linear fit. Type of data set: biochemical. Conditions: 1 mM NADPH, 1 mM beta-mercaptoethanol, pH 9, 37 °C; substrate inhibition.

For a further data set, the target named is T2, E3 (Escherichia coli, UniProt P0A9P0).
T2 construct: gene lpdA; His-tagged full-length, ASKA clone, HisTrap purified, ~56 kDa
T2 sequence (P0A9P0 2-474): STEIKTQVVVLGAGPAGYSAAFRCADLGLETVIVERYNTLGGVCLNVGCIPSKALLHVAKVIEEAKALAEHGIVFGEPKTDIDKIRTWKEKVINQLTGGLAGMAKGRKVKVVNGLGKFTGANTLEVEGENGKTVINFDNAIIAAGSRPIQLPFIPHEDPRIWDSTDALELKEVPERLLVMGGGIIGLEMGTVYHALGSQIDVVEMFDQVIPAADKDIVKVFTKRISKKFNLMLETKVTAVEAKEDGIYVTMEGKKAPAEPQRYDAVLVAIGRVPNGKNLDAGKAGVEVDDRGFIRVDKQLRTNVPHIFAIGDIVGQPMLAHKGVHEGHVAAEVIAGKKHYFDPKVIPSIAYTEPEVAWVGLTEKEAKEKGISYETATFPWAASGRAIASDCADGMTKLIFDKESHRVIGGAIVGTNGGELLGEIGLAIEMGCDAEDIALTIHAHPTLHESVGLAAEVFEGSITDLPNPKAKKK
Kind of data set: Te0 formation, non-linear fit. The format is biochemical. Conditions: 1 mM NADPH, 1 mM beta-mercaptoethanol, pH 6, 37 °C; substrate inhibition.

A further data set addresses T3, TrxB (Escherichia coli, UniProt P0A9P4).
T3 construct: His-tagged full-length, ASKA clone, HisTrap purified, ~35 kDa
Kind of data set: Te0 formation, non-linear fit. Conditions: 1 mM NADPH, 1 mM beta-mercaptoethanol, pH 10, 37 °C; substrate inhibition. Type of data set: biochemical.

The subject of the next data set is O=[Te](O)O. Kind of data set: purified protein. Conditions: 1 mM beta-mercaptoethanol. Type of data set: biochemical, Escherichia coli.

T1 sequence (P06715 whole entry): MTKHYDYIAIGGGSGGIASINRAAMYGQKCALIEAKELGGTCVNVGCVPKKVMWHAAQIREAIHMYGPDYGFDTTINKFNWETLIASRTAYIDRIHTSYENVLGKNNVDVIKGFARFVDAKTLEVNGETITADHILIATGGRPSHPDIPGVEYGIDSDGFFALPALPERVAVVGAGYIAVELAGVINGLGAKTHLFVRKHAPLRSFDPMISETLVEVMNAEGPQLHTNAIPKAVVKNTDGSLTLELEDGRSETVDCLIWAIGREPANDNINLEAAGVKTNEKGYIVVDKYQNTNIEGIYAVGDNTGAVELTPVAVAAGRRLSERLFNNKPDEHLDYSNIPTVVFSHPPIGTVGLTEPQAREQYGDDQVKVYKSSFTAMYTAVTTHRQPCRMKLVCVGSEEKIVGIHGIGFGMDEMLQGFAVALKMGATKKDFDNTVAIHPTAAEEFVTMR
T3 sequence (P0A9P4 2-321): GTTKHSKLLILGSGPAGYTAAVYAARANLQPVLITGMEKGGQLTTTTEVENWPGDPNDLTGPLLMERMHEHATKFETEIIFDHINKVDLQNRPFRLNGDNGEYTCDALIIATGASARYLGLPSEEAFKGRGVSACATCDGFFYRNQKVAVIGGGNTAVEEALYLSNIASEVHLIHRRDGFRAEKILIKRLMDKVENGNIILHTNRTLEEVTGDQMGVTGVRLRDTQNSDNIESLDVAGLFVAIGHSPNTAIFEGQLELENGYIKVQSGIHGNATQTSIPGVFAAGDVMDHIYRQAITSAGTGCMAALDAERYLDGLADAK

Take `O=[Te](O)O` [tellurite]: the “Ki apparent” value at GorA is 232.7 µM; on E3, 63.01 µM; at TrxB, 37.13 µM.

What is called Km is the concentration of substrate that gives half-maximal velocity. As a reminder, the Vmax is the rate approached at saturating substrate. With AhpF (Escherichia coli K-12), in the data set on O=[Te](O)O (1 mM NADH, pH 10, 37 °C), the Km worked out at 819.6 µM and the Vmax was determined as 77900 µmol/min/mg.

Turning to E3 (Escherichia coli K-12), in the data set on O=[Te](O)O (1 mM NADPH, pH 6, 37 °C), the Km was 47.94 µM and the Vmax came out at 84.5 µmol/min/mg.

Regarding GorA (Escherichia coli K-12), in the data set with O=[Te](O)O (1 mM NADPH, pH 9, 37 °C), the Km was found to be 89.47 µM and the Vmax was 6310 µmol/min/mg.

With NorW (Escherichia coli K-12), in the data set on O=[Te](O)O (1 mM NADH, pH 11, 42 °C), the Km came to 694.9 µM and the Vmax was 5350 µmol/min/mg.

Regarding TrxB (Escherichia coli K-12), in the data set on O=[Te](O)O (1 mM NADPH, pH 10, 37 °C), the Km worked out at 114.5 µM and the Vmax was determined as 9590 µmol/min/mg.

Take YkgC (Escherichia coli K-12): in the data set with O=[Te](O)O (1 mM NADH, pH 9, 37 °C), the Km came to 517.1 µM and the Vmax was 2700 µmol/min/mg.
